Protein stability index data for 94 variants are collected here from the supplement of paper PMC10567573.

B1: ZNF24 (parent)
chain: YGETCFPKGRFERKRNPSRKKQHI
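Note: lentivirally expressed fusions sorted by FACS into six bins by GFP to DsRed ratio, PSI derived from sequencing read proportions per bin multiplied by bin number.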

The series covers variants of B1. As to the kind of experiment: protein stability index of a GFP-peptide fusion (GPS, HEK-293T) (PSI 1-6); higher = more stable. As to conditions: c terminus: a fixed tail appended.
As to YGECCFPKGRFERKRNPSRKKQHI, the protein stability index is 2.12.
Turning to YGELCFPKGRFERKRNPSRKKQHI, the protein stability index was determined as 2.45.
The value for YGERCFPKGRFERKRNPSRKKQHI was 3.37; that for YGEHCFPKGRFERKRNPSRKKQHI was 2.98; that for YGEECFPKGRFERKRNPSRKKQHI was 3.24.
Then YGEACFPKGRFERKRNPSRKKQHI, with 2.96; and YGEMCFPKGRFERKRNPSRKKQHI, with 2.47; and YGEDCFPKGRFERKRNPSRKKQHI, with 3.14.
On to YGEYCFPKGRFERKRNPSRKKQHI, for which the protein stability index was determined as 2.09.
On to YGEWCFPKGRFERKRNPSRKKQHI, for which the protein stability index came out at 1.02.
Regarding YGEGCFPKGRFERKRNPSRKKQHI, the protein stability index came out at 2.33.
For the variant YGEPCFPKGRFERKRNPSRKKQHI, the protein stability index was 1.89.
The value for YGEICFPKGRFERKRNPSRKKQHI was 3.04; that for YGEKCFPKGRFERKRNPSRKKQHI was 2.13; that for YGENCFPKGRFERKRNPSRKKQHI was 2.37.
Consider YGEFCFPKGRFERKRNPSRKKQHI, for which the protein stability index was 2.1.
The value for YGEVCFPKGRFERKRNPSRKKQHI was 3.38; that for YGESCFPKGRFERKRNPSRKKQHI was 3.43; that for YGETAFPKGRFERKRNPSRKKQHI was 3.17.
The value for YGETKFPKGRFERKRNPSRKKQHI was 4.01.
The value for YGETMFPKGRFERKRNPSRKKQHI was 2.25; that for YGETEFPKGRFERKRNPSRKKQHI was 3.15; that for YGETSFPKGRFERKRNPSRKKQHI was 3.7.
As to YGETVFPKGRFERKRNPSRKKQHI, the protein stability index was 3.17.
Consider YGETRFPKGRFERKRNPSRKKQHI, for which the protein stability index worked out at 3.29.
YGETYFPKGRFERKRNPSRKKQHI: the protein stability index was 1.95.
The value for YGETNFPKGRFERKRNPSRKKQHI was 2.43; that for YGETTFPKGRFERKRNPSRKKQHI was 2.47; that for YGETWFPKGRFERKRNPSRKKQHI was 2.53.
Then YGETQFPKGRFERKRNPSRKKQHI, with 3.15.
Then YGETDFPKGRFERKRNPSRKKQHI, with 2.67.
Consider YGETFFPKGRFERKRNPSRKKQHI, for which the protein stability index is 3.83.
As to YGETLFPKGRFERKRNPSRKKQHI, the protein stability index is 3.05.
Consider YGETGFPKGRFERKRNPSRKKQHI, for which the protein stability index worked out at 2.17.
Then YGETHFPKGRFERKRNPSRKKQHI, with 3.63; and YGETIFPKGRFERKRNPSRKKQHI, with 3.16; and YGETPFPKGRFERKRNPSRKKQHI, with 3.61.
Consider YGETCWPKGRFERKRNPSRKKQHI, for which the protein stability index was found to be 1.77.
The value for YGETCCPKGRFERKRNPSRKKQHI was 3.87; that for YGETCDPKGRFERKRNPSRKKQHI was 4.46.
Then YGETCGPKGRFERKRNPSRKKQHI, with 3.8.
Then YGETCTPKGRFERKRNPSRKKQHI, with 4.36; and YGETCEPKGRFERKRNPSRKKQHI, with 4.51; and YGETCVPKGRFERKRNPSRKKQHI, with 3.82.
Regarding YGETCRPKGRFERKRNPSRKKQHI, the protein stability index worked out at 3.7.
The value for YGETCSPKGRFERKRNPSRKKQHI was 3.73; that for YGETCHPKGRFERKRNPSRKKQHI was 4.08; that for YGETCQPKGRFERKRNPSRKKQHI was 4.02.
Take YGETCPPKGRFERKRNPSRKKQHI: the protein stability index amounted to 4.35.
With YGETCKPKGRFERKRNPSRKKQHI, the protein stability index worked out at 3.38.
The value for YGETCAPKGRFERKRNPSRKKQHI was 3.64; that for YGETCIPKGRFERKRNPSRKKQHI was 3.61; that for YGETCLPKGRFERKRNPSRKKQHI was 3.79.
With YGETCMPKGRFERKRNPSRKKQHI, the protein stability index came out at 4.07.
Then YGETCNPKGRFERKRNPSRKKQHI, with 4.03; and YGETCYPKGRFERKRNPSRKKQHI, with 4.74.
Then YLETCFPKGRFERKRNPSRKKQHI, with 2.58; and YNETCFPKGRFERKRNPSRKKQHI, with 3.65; and YYETCFPKGRFERKRNPSRKKQHI, with 2.58.
Then YRETCFPKGRFERKRNPSRKKQHI, with 3.41.
For the variant YPETCFPKGRFERKRNPSRKKQHI, the protein stability index turned out to be 2.89.
Then YWETCFPKGRFERKRNPSRKKQHI, with 3.17; and YHETCFPKGRFERKRNPSRKKQHI, with 2.15; and YSETCFPKGRFERKRNPSRKKQHI, with 3.4.
Then YEETCFPKGRFERKRNPSRKKQHI, with 4.37; and YFETCFPKGRFERKRNPSRKKQHI, with 2.51.
For the variant YTETCFPKGRFERKRNPSRKKQHI, the protein stability index is 2.33.
Then YAETCFPKGRFERKRNPSRKKQHI, with 2.34; and YMETCFPKGRFERKRNPSRKKQHI, with 3.
The value for YVETCFPKGRFERKRNPSRKKQHI was 2.74.
The value for YKETCFPKGRFERKRNPSRKKQHI was 3.21; that for YQETCFPKGRFERKRNPSRKKQHI was 3.44.
YDETCFPKGRFERKRNPSRKKQHI: the protein stability index worked out at 4.33.
Turning to YCETCFPKGRFERKRNPSRKKQHI, the protein stability index came out at 2.1.
Then YIETCFPKGRFERKRNPSRKKQHI, with 1.76; and YGSTCFPKGRFERKRNPSRKKQHI, with 2.04.
The value for YGVTCFPKGRFERKRNPSRKKQHI was 3.66; that for YGMTCFPKGRFERKRNPSRKKQHI was 3.41; that for YGITCFPKGRFERKRNPSRKKQHI was 2.71.
The value for YGYTCFPKGRFERKRNPSRKKQHI was 2.37; that for YGKTCFPKGRFERKRNPSRKKQHI was 3.11.
Regarding YGQTCFPKGRFERKRNPSRKKQHI, the protein stability index amounted to 3.2.
The value for YGATCFPKGRFERKRNPSRKKQHI was 2.4; that for YGWTCFPKGRFERKRNPSRKKQHI was 2.26.
Then YGFTCFPKGRFERKRNPSRKKQHI, with 2.71; and YGTTCFPKGRFERKRNPSRKKQHI, with 2.62; and YGGTCFPKGRFERKRNPSRKKQHI, with 2.
Then YGRTCFPKGRFERKRNPSRKKQHI, with 2.9; and YGPTCFPKGRFERKRNPSRKKQHI, with 2.54; and YGNTCFPKGRFERKRNPSRKKQHI, with 1.95.
As to YGCTCFPKGRFERKRNPSRKKQHI, the protein stability index turned out to be 2.75.
Consider YGDTCFPKGRFERKRNPSRKKQHI, for which the protein stability index was determined as 2.2.
Then YGLTCFPKGRFERKRNPSRKKQHI, with 2.96; and YGHTCFPKGRFERKRNPSRKKQHI, with 2.56.
